Where no end group is shown, it is not given here.
Columns and labels:
[1] = Residence time in blood of HA-GLP-1 mutant conjugate (Test Example 5); assay type: in vivo, rat
Method: The HA-GLP-1 mutant conjugate solution obtained in Example 15-2 was diluted with PBS that contained 0.05% Tween 80 (pH 7.4; hereinafter also referred to as “solvent Z”), and the thus diluted solution was then administered at a dosage of 50 μg/kg into the vein of a rat as a single dose. Thereafter, 1, 4, 8, 24, 48, 72, 96, and 168 hours after the administration, the blood was collected (heparin treatment). The blood was then centrifuged, so as to obtain plasma. This plasma sample was cryopreserved at −20° C. or less until measurement was carried out.
Thereafter, they were analyzed using a microplate reader. Conditions for measurement are described below:
Microplate reader: SPECTRA MAX GEMINI (manufactured by Molecular Devices)
Detection: Fluorescence (EX: 355 nm, EM: 460 nm)
The HA-GLP-1 mutant conjugate solution obtained in Example 15-2 was diluted with solvent Z and Assay Buffer included with kit W, so as to prepare standard solutions having concentrations of 12.8, 6.4, 3.2, 1.6, 0.8, 0.4, 0.2, 0.1 μg/ml and 0 μg/ml. Thereafter, 5 μl of normal rat plasma was added to this standard solution, so as to prepare a sample used for calibration curve.
Assay Buffer included with kit W was added to the HA-GLP-1 mutant conjugate-administered rat plasma sample, so as to prepare a measurement sample.
The concentration of the HA-GLP-1 mutant conjugate in plasma was calculated based on the calibration curve obtained from the fluorescence intensity of each standard sample using analysis software SOFTmax PRO (manufactured by Molecular Devices).
With regard to data of a change in the concentration in blood of the administered HA-GLP-1 mutant conjugate, pharmacokinetic parameters were calculated using WinNonlin Ver 4.0.1 (manufactured by Pharsight). With regard to a change in the concentration in plasma of each individual, model-independent analysis was carried out, so as to calculate the mean residence time in blood (MRT). The half-life (t1/2) was calculated using the data of the final 3 measurable points of each individual.

[2] = test system: BKS.Cg-+Lepr^db/+Lepr^db/Jcl mouse; experiment: Oral sugar tolerance test; assay type: in vivo; conditions: for Hypoglycemic ratio: mean value
Method: 8-week-old male BKS.Cg-+Lepr^db/+Lepr^db/Jcl mouse (manufactured by CLEA Japan, Inc.) was subjected to fasting overnight. Thereafter, the HA-GLP-1 mutant conjugate solution obtained in Example 15-2 that had been diluted with solvent Z (peptide amount: 1.5 μg/kg, 15 μg/kg, or 150 μg/kg) or solvent Z was intravenously administered to the above […]. 1 minute after the intravenous administration, a 50% glucose solution (Otsuka Pharmaceutical Co., Ltd.) was orally administered at a dosage of 3 g/kg. […]
The blood was collected from the tail portion before administration of glucose (value at hour 0), and 0.5, 1, 2, and 4 hours after the administration of glucose. Thereafter, the blood glucose level was measured by the enzyme method (hexokinase method, Autosera S GLU (Daiichi Pure Chemical Co., Ltd.; equipment name: BioMajesty JCA-BM1250 (JEOL Ltd.)).
The blood glucose level was calculated by the following hypoglycemic ratio: […]
The mean value and standard deviation of each group were calculated from the calculated hypoglycemic ratio.

[3] = intravenously administered to a rat
[4] = rat vein, 50 μg/kg single dose, mean value

HA-GLP-1 mutant conjugate: GLP-1 mutant (Gly at position 8, Cys at position 37) bound to HA-AM-MI/SUC; 3.7 GLP-1 mutant/HA (mol/mol) (HGEGTFTSDVSSYLEGQAAKEFIAWLVKGRC; also: bound to modified hyaluronic acid HA-AM-MI/SUC, 3.7 peptide per HA, attachment site not given here; UniProt P01275 98-128, looked up, variant A8G G37C)
MRT [1, 3]: 30.2 h | half-life [1, 3]: 23.6 h | Distribution volume [1, 4]: 53.4 mL/kg | Mean residence time in blood [1, 4]: 30.2 h | Total clearance [1, 4]: 1.8 mL/h/kg | half-life [1, 4]: 23.6 h | hypoglycemic action compared with GLP-1 (Human, 7-37) ([2]; oral sugar tolerance test): significantly increased | Hypoglycemic ratio ([2]; peptide amount 1.5 μg/kg intravenous 1 minute before oral glucose 3 g/kg): 3.0% | Hypoglycemic ratio ([2]; peptide amount 15 μg/kg intravenous 1 minute before oral glucose 3 g/kg): 60.1% | Hypoglycemic ratio ([2]; peptide amount 150 μg/kg intravenous 1 minute before oral glucose 3 g/kg): 120.3%
